Values of other authors as cited in publication PMC8773757.
Each block holds one substance with its values, some of them ahead of it.

Legend:
[1] = molecular target: p300/CBP (Homo sapiens) (UniProt Q09472)
[2] = molecular target: HIF-1α PAS-B (Homo sapiens) (UniProt Q16665)
[3] = molecular target: CDC37 (Homo sapiens) (UniProt Q16543)
[4] = molecular target: thymidylate synthase (Homo sapiens) (UniProt P04818)

Chain of UniProt Q09472 (Q09472 2-2414): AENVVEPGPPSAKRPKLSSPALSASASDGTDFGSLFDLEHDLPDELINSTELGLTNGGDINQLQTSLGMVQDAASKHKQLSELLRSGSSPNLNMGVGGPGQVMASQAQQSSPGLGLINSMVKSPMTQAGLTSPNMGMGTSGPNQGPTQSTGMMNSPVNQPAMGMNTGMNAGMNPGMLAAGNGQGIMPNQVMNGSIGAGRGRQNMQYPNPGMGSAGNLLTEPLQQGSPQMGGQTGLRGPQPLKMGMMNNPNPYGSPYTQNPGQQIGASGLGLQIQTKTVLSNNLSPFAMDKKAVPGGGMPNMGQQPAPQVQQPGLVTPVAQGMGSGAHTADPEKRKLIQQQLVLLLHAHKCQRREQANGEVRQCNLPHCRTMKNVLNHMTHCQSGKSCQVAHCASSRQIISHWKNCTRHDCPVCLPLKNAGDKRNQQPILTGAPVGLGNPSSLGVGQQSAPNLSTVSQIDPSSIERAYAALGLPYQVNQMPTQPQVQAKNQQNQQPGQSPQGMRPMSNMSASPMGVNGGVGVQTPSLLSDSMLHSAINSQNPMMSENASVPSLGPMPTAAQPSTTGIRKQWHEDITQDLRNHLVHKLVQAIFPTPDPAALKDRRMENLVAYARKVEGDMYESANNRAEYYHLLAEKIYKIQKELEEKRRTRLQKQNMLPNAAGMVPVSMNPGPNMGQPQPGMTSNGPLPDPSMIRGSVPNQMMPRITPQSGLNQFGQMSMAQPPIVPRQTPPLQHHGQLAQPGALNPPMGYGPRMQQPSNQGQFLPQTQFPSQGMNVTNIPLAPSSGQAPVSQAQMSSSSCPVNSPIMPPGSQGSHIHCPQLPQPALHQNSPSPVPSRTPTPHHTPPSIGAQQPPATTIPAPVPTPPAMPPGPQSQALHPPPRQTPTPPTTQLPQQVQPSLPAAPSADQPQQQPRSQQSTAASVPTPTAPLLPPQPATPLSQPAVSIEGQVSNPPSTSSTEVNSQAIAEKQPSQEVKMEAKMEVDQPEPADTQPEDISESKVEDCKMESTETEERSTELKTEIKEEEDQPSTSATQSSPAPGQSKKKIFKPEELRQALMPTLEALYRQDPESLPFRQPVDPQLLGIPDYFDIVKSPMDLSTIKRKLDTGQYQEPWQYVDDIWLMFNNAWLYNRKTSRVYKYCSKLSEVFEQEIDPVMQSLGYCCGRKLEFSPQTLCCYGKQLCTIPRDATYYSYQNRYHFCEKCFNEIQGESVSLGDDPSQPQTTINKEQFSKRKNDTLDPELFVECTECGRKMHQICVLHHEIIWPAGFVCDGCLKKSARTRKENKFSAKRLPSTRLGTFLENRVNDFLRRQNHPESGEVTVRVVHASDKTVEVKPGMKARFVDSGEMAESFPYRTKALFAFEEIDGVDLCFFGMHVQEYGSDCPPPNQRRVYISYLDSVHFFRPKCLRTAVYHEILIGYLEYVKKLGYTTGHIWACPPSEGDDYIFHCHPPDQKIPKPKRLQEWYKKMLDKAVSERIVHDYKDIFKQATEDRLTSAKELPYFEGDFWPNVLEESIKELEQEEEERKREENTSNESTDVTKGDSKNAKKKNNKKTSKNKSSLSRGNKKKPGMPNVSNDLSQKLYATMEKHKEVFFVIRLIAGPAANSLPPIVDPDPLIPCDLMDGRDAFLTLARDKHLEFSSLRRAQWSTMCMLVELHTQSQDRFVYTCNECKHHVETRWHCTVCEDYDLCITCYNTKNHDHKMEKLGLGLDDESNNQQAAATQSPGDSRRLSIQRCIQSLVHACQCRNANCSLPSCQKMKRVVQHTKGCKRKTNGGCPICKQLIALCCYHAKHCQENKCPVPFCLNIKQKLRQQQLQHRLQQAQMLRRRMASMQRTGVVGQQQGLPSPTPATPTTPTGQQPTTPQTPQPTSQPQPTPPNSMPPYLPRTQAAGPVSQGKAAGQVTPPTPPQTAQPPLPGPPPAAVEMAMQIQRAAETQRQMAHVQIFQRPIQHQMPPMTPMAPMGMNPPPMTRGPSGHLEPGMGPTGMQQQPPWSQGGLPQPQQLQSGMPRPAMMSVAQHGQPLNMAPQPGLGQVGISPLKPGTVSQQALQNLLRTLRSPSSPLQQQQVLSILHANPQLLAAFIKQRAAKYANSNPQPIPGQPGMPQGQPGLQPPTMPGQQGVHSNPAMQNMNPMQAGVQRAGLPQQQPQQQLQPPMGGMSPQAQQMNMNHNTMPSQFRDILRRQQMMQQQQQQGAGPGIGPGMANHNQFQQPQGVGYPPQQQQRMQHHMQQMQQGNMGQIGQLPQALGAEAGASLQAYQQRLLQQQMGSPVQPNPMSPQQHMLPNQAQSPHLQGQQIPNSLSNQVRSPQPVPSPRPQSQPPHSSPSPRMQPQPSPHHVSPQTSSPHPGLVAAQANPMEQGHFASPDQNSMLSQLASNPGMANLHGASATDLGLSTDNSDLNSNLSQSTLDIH
Chain of HIF-1α (Q16665 whole entry): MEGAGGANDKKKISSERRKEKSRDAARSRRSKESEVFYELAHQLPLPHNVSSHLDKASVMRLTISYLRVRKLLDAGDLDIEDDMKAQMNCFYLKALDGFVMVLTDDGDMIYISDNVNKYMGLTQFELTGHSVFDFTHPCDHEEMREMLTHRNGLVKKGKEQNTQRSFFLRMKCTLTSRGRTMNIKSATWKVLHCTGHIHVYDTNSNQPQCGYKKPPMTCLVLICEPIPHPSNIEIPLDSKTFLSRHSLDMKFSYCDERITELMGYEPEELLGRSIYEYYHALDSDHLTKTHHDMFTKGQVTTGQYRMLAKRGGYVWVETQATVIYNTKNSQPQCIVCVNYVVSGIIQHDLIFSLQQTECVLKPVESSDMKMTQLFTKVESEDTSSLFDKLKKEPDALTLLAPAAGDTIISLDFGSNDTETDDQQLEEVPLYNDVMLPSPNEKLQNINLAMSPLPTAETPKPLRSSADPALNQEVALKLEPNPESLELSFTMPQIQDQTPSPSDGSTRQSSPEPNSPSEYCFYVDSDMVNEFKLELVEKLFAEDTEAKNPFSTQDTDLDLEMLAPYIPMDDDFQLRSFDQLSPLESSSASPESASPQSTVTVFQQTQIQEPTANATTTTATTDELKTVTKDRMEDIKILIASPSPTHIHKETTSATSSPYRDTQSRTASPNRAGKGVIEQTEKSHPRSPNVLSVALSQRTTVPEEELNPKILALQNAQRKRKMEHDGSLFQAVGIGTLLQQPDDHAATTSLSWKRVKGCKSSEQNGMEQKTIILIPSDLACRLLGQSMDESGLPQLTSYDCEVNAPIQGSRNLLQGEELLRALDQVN
Chain of UniProt Q16543 (Q16543 2-378): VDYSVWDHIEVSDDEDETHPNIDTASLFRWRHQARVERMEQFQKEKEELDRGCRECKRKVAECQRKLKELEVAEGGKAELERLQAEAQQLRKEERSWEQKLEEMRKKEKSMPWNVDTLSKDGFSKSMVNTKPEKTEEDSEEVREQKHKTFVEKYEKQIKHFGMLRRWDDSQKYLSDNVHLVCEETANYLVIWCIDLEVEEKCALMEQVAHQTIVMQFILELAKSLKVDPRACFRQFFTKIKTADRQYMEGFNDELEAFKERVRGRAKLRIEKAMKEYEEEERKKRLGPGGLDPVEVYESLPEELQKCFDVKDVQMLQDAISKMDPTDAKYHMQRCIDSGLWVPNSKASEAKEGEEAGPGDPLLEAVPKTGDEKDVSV

Kd [1]: 7 nM
Substance: HIF-1α (from UniProt Q16665)

Substance: cyclo-CLLFVY
Kd [2]: 124 nM

Kd [3]: 100000 nM
Substance: HSP90 (from UniProt P07900)

Kd [4]: 200 nM
Substance: thymidylate synthase (from UniProt P04818)
